Data on four molecules can be found in PMC9482650, “Quantitative fragmentomics allow affinity mapping of interactomes” (Nature Communications, 2022).

Some targets named below: DLG1_2, Q12959; DLG4_2, P78352; FRMPD3, Q5JV73; GRASP, Q7Z6J2; GRIP2_7, Q9C0E4; LDB3, O75112; MAGI2_2, Q86UL8; PARD3_3, Q8TEW0; PDLIM1, O00151; SCRIB_1, Q14160.
What all share (experiment): holdup assay
Holding throughout (design): key: below the threshold = too weak to quantify, mostly under pKd 3.1 to 4

The target of the next assay is T1, APBA1_1, Q02410.
T1 sequence (Q02410 651-752, limits assumed, looked up): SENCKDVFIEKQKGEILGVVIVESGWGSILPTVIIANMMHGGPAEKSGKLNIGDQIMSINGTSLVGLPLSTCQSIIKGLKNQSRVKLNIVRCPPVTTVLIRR

The target of the next assay is T2, CARD11, Q9BXL7.
T2 sequence (Q9BXL7 662-765, limits assumed, looked up): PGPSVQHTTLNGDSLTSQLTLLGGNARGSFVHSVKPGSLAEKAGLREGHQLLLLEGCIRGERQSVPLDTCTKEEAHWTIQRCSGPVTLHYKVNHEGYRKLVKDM

For a further assay, the target named is T3, DFNB31_1, Q9P202.
T3 sequence (Q9P202 135-233, limits assumed, looked up): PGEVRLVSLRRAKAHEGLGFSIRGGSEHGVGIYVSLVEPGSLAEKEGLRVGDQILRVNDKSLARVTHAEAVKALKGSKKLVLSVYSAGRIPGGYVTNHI

A further assay concerns the target T4, DFNB31_2, Q9P202.
T4 sequence (Q9P202 274-371, limits assumed, looked up): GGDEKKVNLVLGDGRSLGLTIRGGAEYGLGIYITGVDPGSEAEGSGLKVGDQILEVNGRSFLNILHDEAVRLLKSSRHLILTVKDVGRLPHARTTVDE

A further assay concerns the target T5, DFNB31_3, Q9P202.
T5 sequence (Q9P202 811-907, limits assumed, looked up): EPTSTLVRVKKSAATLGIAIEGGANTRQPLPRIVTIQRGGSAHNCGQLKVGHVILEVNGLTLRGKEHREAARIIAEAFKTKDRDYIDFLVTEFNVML

The next assay deals with T6, DVL3, Q92997.
T6 sequence (Q92997 244-331, limits assumed, looked up): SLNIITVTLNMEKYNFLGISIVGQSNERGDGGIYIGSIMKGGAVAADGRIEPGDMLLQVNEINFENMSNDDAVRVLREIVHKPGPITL

In a further assay the target is T7, GRIP1_4, Q9Y3R0.
T7 sequence (Q9Y3R0 467-571, limits assumed, looked up): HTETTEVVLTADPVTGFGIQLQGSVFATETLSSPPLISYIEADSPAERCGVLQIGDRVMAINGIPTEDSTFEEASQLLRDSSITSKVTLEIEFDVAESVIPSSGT

The next assay addresses T8, HTRA3, P83110.
T8 sequence (P83110 354-453, limits assumed, looked up): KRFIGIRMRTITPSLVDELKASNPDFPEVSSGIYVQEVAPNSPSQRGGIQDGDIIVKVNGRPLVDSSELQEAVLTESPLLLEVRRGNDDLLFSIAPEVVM

Another assay deals with T9, LIN7A, O14910.
T9 sequence (O14910 103-200, limits assumed, looked up): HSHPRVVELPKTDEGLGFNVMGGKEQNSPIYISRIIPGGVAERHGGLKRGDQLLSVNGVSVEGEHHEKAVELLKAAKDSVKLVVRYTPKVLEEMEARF

A further assay addresses T10, LIN7B, Q9HAP6.
T10 sequence (Q9HAP6 88-185, limits assumed, looked up): T9 sequence (O14910 103-200, limits assumed, looked up) with S2A, V20I, I35V, E42D, H65Q, K77Q, D78G, K89R

Another assay concerns the target T11, PDZD7_3, Q9H5P4.
T11 sequence (Q9H5P4 857-944, limits assumed, looked up): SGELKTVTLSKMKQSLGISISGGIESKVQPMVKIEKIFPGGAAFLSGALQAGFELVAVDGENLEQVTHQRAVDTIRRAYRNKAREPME

Another assay deals with T12, PTPN13_1, Q12923.
T12 sequence (Q12923 1088-1188, limits assumed, looked up): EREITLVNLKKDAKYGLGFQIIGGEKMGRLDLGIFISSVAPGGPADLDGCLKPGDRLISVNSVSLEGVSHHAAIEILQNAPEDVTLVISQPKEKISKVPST

The next assay addresses T13, SNTA1, Q13424.
T13 sequence (Q13424 82-180, limits assumed, looked up): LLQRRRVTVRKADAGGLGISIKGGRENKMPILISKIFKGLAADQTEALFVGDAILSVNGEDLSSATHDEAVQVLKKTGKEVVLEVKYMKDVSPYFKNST

The target of a further assay is T14, TIAM2, Q8IVF5.
T14 sequence (Q8IVF5 885-986, limits assumed, looked up): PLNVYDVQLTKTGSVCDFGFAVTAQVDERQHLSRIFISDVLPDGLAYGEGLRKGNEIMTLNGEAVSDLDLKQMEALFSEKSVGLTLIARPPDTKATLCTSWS

Where [1] appears, read: plain residues with an end cap or a label only (N-terminal biotin on a linker: ado-ado).
Setting [2] is: plain residues with an end cap or a label only (N-terminal biotin on a linker: (peg)3).

Substitutions are numbered along the chain they refer to.

Sequence of SCRIB_1, Q14160 (Q14160 718-814): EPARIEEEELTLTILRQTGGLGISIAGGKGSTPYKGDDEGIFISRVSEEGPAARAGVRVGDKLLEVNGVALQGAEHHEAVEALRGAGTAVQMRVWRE
Sequence of PARD3_3, Q8TEW0 (Q8TEW0 582-685): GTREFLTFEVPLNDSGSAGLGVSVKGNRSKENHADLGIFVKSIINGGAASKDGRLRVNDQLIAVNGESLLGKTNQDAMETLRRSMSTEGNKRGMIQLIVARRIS
Sequence of PDLIM1, O00151 (O00151 1-87): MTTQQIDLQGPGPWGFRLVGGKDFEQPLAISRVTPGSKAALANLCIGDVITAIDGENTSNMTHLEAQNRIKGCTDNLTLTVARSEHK
Sequence of LDB3, O75112 (O75112 1-94): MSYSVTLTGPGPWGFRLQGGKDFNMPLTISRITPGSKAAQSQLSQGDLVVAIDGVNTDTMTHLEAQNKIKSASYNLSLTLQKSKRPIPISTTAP
Sequence of GRASP, Q7Z6J2 (Q7Z6J2 96-193): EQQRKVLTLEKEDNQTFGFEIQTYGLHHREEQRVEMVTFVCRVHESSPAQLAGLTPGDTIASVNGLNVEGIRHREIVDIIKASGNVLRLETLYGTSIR
Sequence of DLG1_2, Q12959 (Q12959 314-412): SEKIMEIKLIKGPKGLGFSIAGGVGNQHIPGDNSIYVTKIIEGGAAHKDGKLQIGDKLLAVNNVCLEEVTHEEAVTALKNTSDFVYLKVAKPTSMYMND
Sequence of FRMPD3, Q5JV73 (Q5JV73 12-100): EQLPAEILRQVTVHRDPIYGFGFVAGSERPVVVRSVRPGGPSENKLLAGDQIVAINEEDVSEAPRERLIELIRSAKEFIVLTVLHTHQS
Sequence of DLG4_2, P78352 (P78352 155-259): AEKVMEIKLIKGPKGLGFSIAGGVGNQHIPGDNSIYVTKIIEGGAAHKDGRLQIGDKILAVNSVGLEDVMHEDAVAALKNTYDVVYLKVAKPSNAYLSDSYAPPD
Sequence of MAGI2_2, Q86UL8 (Q86UL8 410-522): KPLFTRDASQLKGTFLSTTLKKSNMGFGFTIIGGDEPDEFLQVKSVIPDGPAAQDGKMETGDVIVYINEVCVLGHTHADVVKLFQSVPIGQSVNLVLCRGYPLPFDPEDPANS
Sequence of GRIP2_7, Q9C0E4 (Q9C0E4 934-1023): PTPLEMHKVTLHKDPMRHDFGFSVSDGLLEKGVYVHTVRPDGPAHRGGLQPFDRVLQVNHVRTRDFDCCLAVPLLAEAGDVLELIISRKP

The pKd is the Kd on a negative log10 scale, so that one unit is a factor of ten. As to RPGFASESKV [ADRB1, P08588], the pKd entry with APBA1_1, Q02410 (setting [1]) was “below the threshold”; in the assay with CARD11, Q9BXL7 (setting [1]) it was “below the threshold”; with DFNB31_1, Q9P202 (setting [1]), 4.21; with DFNB31_2, Q9P202 (setting [1]) it was “below the threshold”; with DFNB31_3, Q9P202 (setting [1]), “below the threshold”; with DLG1_2, Q12959 (setting [1]), 4.49. The pKd with DLG4_2, P78352 (setting [1]) was 4.22; with DVL3, Q92997 (setting [1]) it was “below the threshold”; with FRMPD3, Q5JV73 (setting [1]), “below the threshold”; with GRASP, Q7Z6J2 (setting [1]), “below the threshold”; with GRIP1_4, Q9Y3R0 (setting [1]), “below the threshold”; in the assay with GRIP2_7, Q9C0E4 (setting [1]), “below the threshold”. Besides, the negative logarithm of the Kd (pKd) entry with HTRA3, P83110 (setting [1]) is “below the threshold”; in the assay with LDB3, O75112 (setting [1]), “below the threshold”; with LIN7A, O14910 (setting [1]), “below the threshold”; in the assay with LIN7B, Q9HAP6 (setting [1]), “below the threshold”; in the assay with MAGI2_2, Q86UL8 (setting [1]), 4.6; in the assay with PARD3_3, Q8TEW0 (setting [1]) it was “below the threshold”. Besides, the pKd result in the assay with PDLIM1, O00151 (setting [1]) was “below the threshold”; with PDZD7_3, Q9H5P4 (setting [1]) it was 3.71; with PTPN13_1, Q12923 (setting [1]), “below the threshold”; with SCRIB_1, Q14160 (setting [1]) it was 3.94; in the assay with SNTA1, Q13424 (setting [1]) it was 4.28; with TIAM2, Q8IVF5 (setting [1]), “below the threshold”.
As for DFRHKSSFVI [JAM3, Q9BX67], the negative-log Kd (pKd) entry in the assay with APBA1_1, Q02410 (setting [1]) is “below the threshold”; with CARD11, Q9BXL7 (setting [1]) it was “below the threshold”; with DFNB31_1, Q9P202 (setting [1]), “below the threshold”; in the assay with DFNB31_2, Q9P202 (setting [1]) it was “below the threshold”; with DFNB31_3, Q9P202 (setting [1]), 3.86; with DLG1_2, Q12959 (setting [1]), “below the threshold”. Besides, the negative-log Kd (pKd) result in the assay with DLG4_2, P78352 (setting [1]) is on record as “below the threshold”; in the assay with DVL3, Q92997 (setting [1]), “below the threshold”; with FRMPD3, Q5JV73 (setting [1]), “below the threshold”; with GRASP, Q7Z6J2 (setting [1]), “below the threshold”; with GRIP1_4, Q9Y3R0 (setting [1]), “below the threshold”; with GRIP2_7, Q9C0E4 (setting [1]), “below the threshold”. Besides, the pKd was 3.89 in the assay with HTRA3, P83110 (setting [1]); 3.76 with LDB3, O75112 (setting [1]); “below the threshold” with LIN7A, O14910 (setting [1]); 3.82 with LIN7B, Q9HAP6 (setting [1]); “below the threshold” with MAGI2_2, Q86UL8 (setting [1]); 3.94 in the assay with PARD3_3, Q8TEW0 (setting [1]). The negative-log Kd (pKd) entry is “below the threshold” with PDLIM1, O00151 (setting [1]); 4.85 in the assay with PDZD7_3, Q9H5P4 (setting [1]); “below the threshold” with PTPN13_1, Q12923 (setting [1]); “below the threshold” in the assay with SCRIB_1, Q14160 (setting [1]); “below the threshold” in the assay with SNTA1, Q13424 (setting [1]); 4.02 with TIAM2, Q8IVF5 (setting [1]).
Turning to GQETPLNTFC [MAP7D2, Q96T17], the negative-log Kd (pKd) entry in the assay with APBA1_1, Q02410 (setting [1]) was “below the threshold”; with CARD11, Q9BXL7 (setting [1]), “below the threshold”; with DFNB31_1, Q9P202 (setting [1]) it was “below the threshold”; with DFNB31_2, Q9P202 (setting [1]), “below the threshold”; with DFNB31_3, Q9P202 (setting [1]), “below the threshold”; in the assay with DLG1_2, Q12959 (setting [1]), “below the threshold”. Further, the pKd with DLG4_2, P78352 (setting [1]) was 3.48; with DVL3, Q92997 (setting [1]), “below the threshold”; with FRMPD3, Q5JV73 (setting [1]) it was “below the threshold”; with GRASP, Q7Z6J2 (setting [1]), “below the threshold”; with GRIP1_4, Q9Y3R0 (setting [1]) it was “below the threshold”; with GRIP2_7, Q9C0E4 (setting [1]), “below the threshold”. In addition, the negative logarithm of the Kd (pKd) with HTRA3, P83110 (setting [1]) is 4.55; with LDB3, O75112 (setting [1]), “below the threshold”; in the assay with LIN7A, O14910 (setting [1]) it was “below the threshold”; with LIN7B, Q9HAP6 (setting [1]) it was 3.81; with MAGI2_2, Q86UL8 (setting [1]), “below the threshold”; in the assay with PARD3_3, Q8TEW0 (setting [1]), “below the threshold”. In addition, the negative logarithm of the Kd (pKd) entry with PDLIM1, O00151 (setting [1]) was “below the threshold”; in the assay with PDZD7_3, Q9H5P4 (setting [1]), 4.29; with PTPN13_1, Q12923 (setting [1]), “below the threshold”; with SCRIB_1, Q14160 (setting [1]) it was 3.88; with SNTA1, Q13424 (setting [1]), “below the threshold”; with TIAM2, Q8IVF5 (setting [1]), 3.62.
As for YDEPTTTTSVPL [SARS-Cov2-3a, P0DTC3], the negative-log Kd (pKd) entry is reported as “below the threshold” in the assay with APBA1_1, Q02410 (setting [2]); “below the threshold” in the assay with CARD11, Q9BXL7 (setting [2]); “below the threshold” in the assay with DFNB31_1, Q9P202 (setting [2]); “below the threshold” with DFNB31_2, Q9P202 (setting [2]); “below the threshold” with DFNB31_3, Q9P202 (setting [2]); “below the threshold” in the assay with DLG1_2, Q12959 (setting [2]). Besides, the pKd entry in the assay with DLG4_2, P78352 (setting [2]) is “below the threshold”; in the assay with DVL3, Q92997 (setting [2]) it was “below the threshold”; with FRMPD3, Q5JV73 (setting [2]), “below the threshold”; in the assay with GRASP, Q7Z6J2 (setting [2]), 3.83; with GRIP1_4, Q9Y3R0 (setting [2]), “below the threshold”; in the assay with GRIP2_7, Q9C0E4 (setting [2]), “below the threshold”. Moreover, the pKd result in the assay with HTRA3, P83110 (setting [2]) was “below the threshold”; with LDB3, O75112 (setting [2]), “below the threshold”; in the assay with LIN7A, O14910 (setting [2]), “below the threshold”; in the assay with LIN7B, Q9HAP6 (setting [2]), “below the threshold”; with MAGI2_2, Q86UL8 (setting [2]), “below the threshold”; in the assay with PARD3_3, Q8TEW0 (setting [2]), “below the threshold”. Besides, the pKd entry is “below the threshold” with PDLIM1, O00151 (setting [2]); “below the threshold” in the assay with PDZD7_3, Q9H5P4 (setting [2]); “below the threshold” with PTPN13_1, Q12923 (setting [2]); “below the threshold” with SCRIB_1, Q14160 (setting [2]); “below the threshold” with SNTA1, Q13424 (setting [2]); “below the threshold” with TIAM2, Q8IVF5 (setting [2]).
